Target: Growth Factor Receptor-bound 2 (GRB2), endogenous in HEK cells (human (endogenous in HEK)) (UniProt P62993)
Assay: co-IP

Chain of Growth Factor Receptor-bound 2 (GRB2), endogenous in HEK cells (human (endogenous in HEK)) (P62993 whole entry): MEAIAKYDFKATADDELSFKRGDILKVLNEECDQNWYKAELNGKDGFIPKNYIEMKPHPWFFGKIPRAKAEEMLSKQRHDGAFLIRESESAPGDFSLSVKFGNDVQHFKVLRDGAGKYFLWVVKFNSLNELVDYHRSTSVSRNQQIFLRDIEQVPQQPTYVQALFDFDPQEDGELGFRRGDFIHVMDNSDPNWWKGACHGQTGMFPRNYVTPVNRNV

In the case of “SWELL1^Δ91/+35 mutant, transiently expressed in HEK cells (natural protein)”, the densitometry ratio SWELL1^Δ91/+35/GRB2 in the GRB2 immunoprecipitate is reported as 0.07.
